± gives the uncertainty stated by the source.
Assay: self-splicing fitness, log relative to wild type (ln ratio); higher = more splicing; Tetrahymena group I intron in knt gene, E. coli kanamycin selection, DiMSum; sequences stand for … in CUCUCU…GGAGGGAAAAGUUAUCAGGCAUGCACCUGGUAGCUAGUCUUUAAACCAAUAGAUUGCAUCGGUUUAAAAGGCAAGACCGUCAAAUUGCGGGAAAGGGGUCAACAGCCGUUCAGUACCAAGUCUCAGGGGAAACUUUGAGAUGGCCUUGCAAAGGGUAUGGUAAUAAGCUGACGGACAUGGUCCUAACCACGCAGCCAAGUCCUAAGUCAACAGAUCUUCUGUUGAUAUGGAUGCAGUUCACAGACUAAAUGUCGGUCGGGGAAGAUGUAUUCUUCUCAUAAGAUAUAGUCGGACCUCUCCUUAAUGGGAGCUAGCGGAUGAAGUGAUGCAACACUGGAGCCGCUGGGAACUAAUUUGUAUGCGAAAGUAUAUUGAUUAGUUUUGGAGUACUCGUGGUCG
Procedure, shortened: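 Pooled colonies went to amplicon sequencing on an Illumina HiSeq 2500 after six replicate transformations. The plates were LB agar with 100 μg/mL carbenicillin, 50 μM IPTG and 0.2% rhamnose, with or without 25 μg/mL kanamycin, incubated overnight at 37°C or 30°C. The E. coli BL21(DE3) library had all eight P1ex-region intron nucleotides randomised, the intron placed in the knt kanamycin-resistance gene on pET-22b(+). DiMSum fitness is the error-weighted combination of replicate fold changes, kanamycin against none, normalised to wild type.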

Sequence | self-splicing fitness (ln) (30 °C) | self-splicing fitness (ln) (37 °C)
AGACAGCAAUAUUACGCCUC | -4.48 ± 0.36 | -2.08 ± 0.21
GACAAGCAAUAUUACGUUUG | -2.88 ± 0.094 | -2.64 ± 0.13
AAUAAGCAAUAUUACGUGCG | -1.1 ± 0.065 | -0.488 ± 0.083
AUUGAGCAAUAUUACGGCUU | -2.62 ± 0.21 | -0.8 ± 0.17
UUCGAGCAAUAUUACGCAUA | -3.18 ± 0.42 | -1.39 ± 0.26
GUGUAGCAAUAUUACGGCUU | -0.494 ± 0.078 | 0.195 ± 0.11
CGUUAGCAAUAUUACGAUAU | -3.41 ± 0.14 | -2.22 ± 0.14
GCGGAGCAAUAUUACGGGCC | -2.57 ± 0.42 | –
AACAAGCAAUAUUACGAUUU | 0.129 ± 0.056 | 0.672 ± 0.077
GCCUAGCAAUAUUACGUGUU | -0.926 ± 0.042 | 0.15 ± 0.055
UGUAAGCAAUAUUACGGUCC | -2.16 ± 0.14 | -1.29 ± 0.14
GAAGAGCAAUAUUACGCCAC | -3.28 ± 0.41 | -2.48 ± 0.41
ACCGAGCAAUAUUACGGCGG | -3.59 ± 0.3 | -2.58 ± 0.39
GAUAAGCAAUAUUACGCACA | -0.364 ± 0.14 | 0.39 ± 0.18
GUCGAGCAAUAUUACGGCGU | -0.43 ± 0.19 | -0.689 ± 0.14
AAGAAGCAAUAUUACGCGUC | -2.48 ± 0.27 | -1.21 ± 0.3
UGGAAGCAAUAUUACGGGCG | -0.122 ± 0.1 | -0.0506 ± 0.11
CCGAAGCAAUAUUACGUACC | -3.47 ± 0.16 | -2.5 ± 0.21
CGCCAGCAAUAUUACGGAUG | -2.64 ± 0.1 | -1.25 ± 0.087
GUGAAGCAAUAUUACGGUUC | -2.13 ± 0.12 | -1.19 ± 0.14
AGAAAGCAAUAUUACGGCCU | 0.484 ± 0.11 | 0.212 ± 0.12

Sequence | self-splicing fitness (ln) (30 °C) | self-splicing fitness (ln) (37 °C)
GGGCAGCAAUAUUACGUGGG | -3.1 ± 0.12 | -2.62 ± 0.13
GGUUAGCAAUAUUACGUCGU | -0.855 ± 0.073 | 0.451 ± 0.11
CCAGAGCAAUAUUACGUGGA | -4.15 ± 0.23 | -2.03 ± 0.16
CUCCAGCAAUAUUACGCUAA | -3.28 ± 0.27 | -2.62 ± 0.42
CAUUAGCAAUAUUACGUGCA | -2.31 ± 0.28 | –
UGAUAGCAAUAUUACGAAGA | -2.56 ± 0.26 | -1.97 ± 0.22
GUAUAGCAAUAUUACGAAUG | -3 ± 0.24 | -2.32 ± 0.28
CAUUAGCAAUAUUACGUCCG | -0.0564 ± 0.12 | -0.142 ± 0.15
CCUAAGCAAUAUUACGCAUC | -2.22 ± 0.13 | -1.91 ± 0.13
CGAGAGCAAUAUUACGUUUU | -3.09 ± 0.24 | -2.79 ± 0.25
UCCUAGCAAUAUUACGGUCU | -1.59 ± 0.06 | -0.444 ± 0.07
CUCAAGCAAUAUUACGGUAC | – | -3.06 ± 0.37
UCCAAGCAAUAUUACGCAAU | -3.44 ± 0.22 | -2.71 ± 0.26
AUUAAGCAAUAUUACGCCCU | -0.0606 ± 0.33 | -0.149 ± 0.28
CGCGAGCAAUAUUACGAUGC | – | -2.16 ± 0.21
CACAAGCAAUAUUACGUGAU | -4.03 ± 0.15 | -2.5 ± 0.15
CAGCAGCAAUAUUACGUUGU | -2.88 ± 0.1 | -1.52 ± 0.13
CAGAAGCAAUAUUACGUCAU | – | -2.9 ± 0.25
CUUGAGCAAUAUUACGGCCG | – | -0.18 ± 0.27
UGAAAGCAAUAUUACGAAGG | -2.92 ± 0.21 | -1.48 ± 0.25
ACCGAGCAAUAUUACGCAUC | -1.14 ± 0.17 | –

Sequence | self-splicing fitness (ln) (30 °C) | self-splicing fitness (ln) (37 °C)
GCAUAGCAAUAUUACGGUAU | -2.86 ± 0.16 | -1.75 ± 0.12
AGUUAGCAAUAUUACGAAAA | -2.79 ± 0.49 | -1.5 ± 0.32
GUAGAGCAAUAUUACGUUGU | -2.53 ± 0.3 | -0.699 ± 0.29
ACCUAGCAAUAUUACGCGUA | -2.46 ± 0.17 | -1.22 ± 0.11
UAUAAGCAAUAUUACGGACU | -2.12 ± 0.11 | -0.796 ± 0.11
CUCUAGCAAUAUUACGAGCG | -2.79 ± 0.14 | -2.73 ± 0.16
ACCCAGCAAUAUUACGUCGG | -2.15 ± 0.073 | -0.593 ± 0.088
UCCCAGCAAUAUUACGUUGC | -3.5 ± 0.27 | -2.06 ± 0.27
CCAUAGCAAUAUUACGCGAG | -2.77 ± 0.16 | -1.22 ± 0.13
UGUUAGCAAUAUUACGGGAC | – | -2.99 ± 0.48
CCGAAGCAAUAUUACGAGCU | -3.83 ± 0.27 | -2.47 ± 0.19
ACAAAGCAAUAUUACGUGUU | -3.59 ± 0.17 | -2.61 ± 0.16
CUAUAGCAAUAUUACGCGUA | -1.43 ± 0.31 | -2.86 ± 0.31
AUGGAGCAAUAUUACGUUGA | – | -2.38 ± 0.2
GGGGAGCAAUAUUACGUGAU | -2.84 ± 0.25 | -1.8 ± 0.26
CCCAAGCAAUAUUACGUAAU | -4.69 ± 0.17 | -2.97 ± 0.19
AGUAAGCAAUAUUACGUUGG | -3.59 ± 0.48 | -2.64 ± 0.36
UUCGAGCAAUAUUACGGUGA | -1.33 ± 0.1 | -0.708 ± 0.11
CUCGAGCAAUAUUACGGUCA | -2.89 ± 0.28 | -0.817 ± 0.23
ACUUAGCAAUAUUACGCGCU | -0.535 ± 0.094 | -0.305 ± 0.097
CAUCAGCAAUAUUACGUAAA | -1.39 ± 0.11 | -0.891 ± 0.13

Source: the supplement of paper PMC7877785
